From patent US20190367631A1

Experiments:
[1] = biological target: endogenously expressed human MSR1 on PMA-treated THP-1 cells (human) (UniProt P21757); test: confocal imaging, differentiated THP-1 cells, Alexa 488 secondary
[2] = biological target: endogenously expressed human MSR1 on PMA-treated THP-1 cells (human) (UniProt P21757); test: ECL cell binding, PMA-treated THP-1 cells, 11 nM
[3] = biological target: endogenously expressed human MSR1 on PMA-treated THP-1 cells (human) (UniProt P21757); test: cell-based or functional assay

endogenously expressed human MSR1 on PMA-treated THP-1 cells (human), sequence (P21757 whole entry): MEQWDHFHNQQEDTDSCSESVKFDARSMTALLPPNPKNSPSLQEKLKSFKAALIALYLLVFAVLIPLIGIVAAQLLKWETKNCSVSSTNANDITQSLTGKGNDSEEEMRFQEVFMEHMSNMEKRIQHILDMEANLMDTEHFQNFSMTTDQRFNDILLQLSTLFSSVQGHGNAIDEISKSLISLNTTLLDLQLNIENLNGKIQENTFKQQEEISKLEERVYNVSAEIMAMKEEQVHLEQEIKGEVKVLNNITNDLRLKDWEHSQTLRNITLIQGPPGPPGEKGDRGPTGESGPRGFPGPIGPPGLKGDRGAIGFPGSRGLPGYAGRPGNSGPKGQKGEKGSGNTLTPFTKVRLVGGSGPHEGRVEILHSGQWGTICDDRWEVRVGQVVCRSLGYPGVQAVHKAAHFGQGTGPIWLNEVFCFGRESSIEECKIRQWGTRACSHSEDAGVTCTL

Binder	Total Binding at 4° C. (RFU) [1]	Total Binding at 37° C. (RFU) [1]	ratio of binding signal (RLU) to isotype control [2]	% Internalization [3]	Total Internalized RFU [3]
H1H27729P-N297Q (antibody, human IgG1, V domains shown) VH: QVQLVESGGGLVKPGGSLRLSCAASGFIFSDYYMSWIRQAPGKGLEWVSYISSSGTTIYGDSVKGRFTMSRDNAKNSLYLQMNSLRAEDTAVYYCARNYALFDYWGQGTLVTVSS VL: DIQMTQSPSSLSASVGDRVTITCQASQDISKYLNWYQQKPGKAPKLLIYYTSNLETGVPSRFSGSGSGTDFTFTISSLQPEDIATYYCHQSDYLPFTFGPGTKVDIKR	1.93e+06 RFU	6.61e+06 RFU	8 fold	57%	3.76e+06 RFU
H1H27739P-N297Q (antibody, human IgG1, V domains shown) VH: EVQLVESGGGLVQPGGSLRLSCTASGFTFSSYAMSWVRQAPGKGLEWVSAISGTGSSTYFTDSVKGRFAISRDNSKNTLYLQMNSLRAEDTAVYYCAKDGEWLSTVTLFDYWGQGTLVTVSS VL: EIVMTQSPATLSVSPGERATLSCRASQSVSSNLAWYQQKPGQAPRLLIYGASTRATGIPARFSGSGSGTDFTLTISSLQSEDFALYYCQQYFIWPPHPTFGPGTKVDIKR	3.7e+06 RFU	5.61e+06 RFU	9 fold	71.6%	4.02e+06 RFU
H2aM25695N (antibody, mouse IgG2a, V domains shown) VH: QVQLQESGPGLVKPSETLSLTCTVTGGSISRNYWSWIRQPPGKGLEWIGYIYYSGSINYNPSLKSRVTISVDMSKNQFSLKLNSVTAADTAVYYCARDRWNWKYGMDVWGQGTTVIVSS VL: EIVLTQSPGTLSLSPGERATLSCRASQTVRNSYLAWYHQKPGQAPRLLIYGASSRATGIPDRFSGSGSGTDFTLTISRLEPEDFAVYYCQQYGSSYWTFGQGTKMEIKR			8 fold		
H2aM25690N (antibody, mouse IgG2a, V domains shown) VH: EVQLLESGGGLVQPGGSLRLSCAASGFTFSNYAMTWVRQAPGTGLEWVSAISGRGSNTYYTDSVKGRFTISRDNSKNMLYLQMNSLRAEDTASYYCAKDRFTTVGNWFDPWGQGTLVTVSS VL: DIQMTQSPSSLSASVGDRVTITCRASQSISSYLNWYQQKPGKAPKLLIYAASSLQNGVPSRFSGSGSGTDFTLTISSLQPEDFATYYCQQSYSSLPITFGQGTRLDIKR			25 fold		
H1H21227N-N297D (antibody, human IgG1, V domains shown) VH: QVQLVQSGAEVKKPGASVKVSCKVSGYTLTELSIHWVRQVPGKGLEWMGGFDPEEGETIFAQEFRDRVTLTEDTSPDTAYMELSSLKSEDAAVYYCTTPRYCNNGICYDYWGQGTLVTVSS VL: DIQMTQSPSSLSASVGDRVTITCRASQSISNYLNWYQQKPGKAPKLLIYTASSLQSGVPSRFSGSGSGTDFTLTISSLQTEDFATYYCQQSYSNFPITFGQGTRLEIKR			6 fold		
H1H27747P-N297Q (antibody, human IgG1, V domains shown) VH: QVQLVESGGAVVQPGRSLRLSCAASGFTFSYYGMHWVRQAPGKGLEWVAVISYDGSKKYYADSVKGRFTISRDNSKNTLYLQMNSLRAEDTAVYYCAKDLTVDFYYGMDVWGQGTTVTVSS VL: DIQMTQSPSSVSASVGDRVTITCRASQGISSWLAWYQQKPGKAPKLLIYATSSLQSGAPSRFSGSGSGTDFTLTISSLQPEDFATYFCQQANSFPYTFGQGTKLEIKR	2.52e+06 RFU	5.92e+06 RFU	13 fold	58.2%	3.44e+06 RFU
H1H27754P-N297Q (antibody, human IgG1, V domains shown) VH: EVQLVESGGGLVQPGGSLRLSCAASGFTFRTYAMTWVRQAPGKGLDWVSAITGDGGNTYYADSVKGRFTISRDNSKNTLYLQMNSLRAEDTAIYYCAKDQRFSFALYYFDYWGQGTLVTVSS VL: DIQMTQSPSSVSASVGDRVTITCRASQGISSWLAWYQQKPGNAPKLLIYAAFSLQSGVPSRFSGSGSGTDFTLTISSLQPEDFATYYCQQANNFPWTFGQGTKVEIKR	3.08e+06 RFU	7.16e+06 RFU	66 fold	90%	6.45e+06 RFU

Continued, values first:

Total Binding at 4° C. (RFU) [1]	Total Binding at 37° C. (RFU) [1]	ratio of binding signal (RLU) to isotype control [2]	% Internalization [3]	Total Internalized RFU [3]	Binder
1.95e+06 RFU	5.45e+06 RFU	25 fold	13.3%	723000 RFU	H1H21234N-N297Q (antibody, human IgG1, V domains shown) VH: QVQLQESGPGLVKPSETLSLTCTVTGGSISRNYWSWIRQPPGKGLEWIGYIYYSGSIDYNPSLKSRVTISVDTSKNQFSLKLSSMTAADTAVYYCARDRWNWKYGMDVWGQGTTVIVSS VL: EIVLTQSPGTLSLSPGERATLSCRASQTVRNNYLAWYHQKPGQAPRLLIYGASSRATGIPDRFSGSGSGTDFTLTISRLEPEDFTVYYCHQYGNSPWTFGQGTKMEIKR
		18 fold			H1H21234N (antibody, human IgG1, V domains shown) VH: QVQLQESGPGLVKPSETLSLTCTVTGGSISRNYWSWIRQPPGKGLEWIGYIYYSGSIDYNPSLKSRVTISVDTSKNQFSLKLSSMTAADTAVYYCARDRWNWKYGMDVWGQGTTVIVSS VL: EIVLTQSPGTLSLSPGERATLSCRASQTVRNNYLAWYHQKPGQAPRLLIYGASSRATGIPDRFSGSGSGTDFTLTISRLEPEDFTVYYCHQYGNSPWTFGQGTKMEIKR
		56 fold			H2aM21229N (antibody, mouse IgG2a, V domains shown) VH: EVQLVESGGGLVKPGGSLRLSCAASGFTFSRYSMNWVRQAPGKGLEWVSSISSSSSYIYYGDTVKGRFTISRDNAKKSLYLQMNSLRAEDTAVYYCVRDRGQLVLYFDYWGQGTLVTVSS VL: DIQMTQSPASLSTSIRDRVTITCRASLSISSFLNWFQQRPGKAPKLLIYVASNLQSGVPSRFSDSGSGTDFTLTISSLQPEDFATYYCQQNYSTPPITFGQGTRLEIK
483000 RFU	1.15e+06 RFU	21 fold		737000 RFU	H1H27734P-N297Q (antibody, human IgG1, V domains shown) VH: EVQLVESRGGLVQPGGSLRLSCAASGFTFSSYAMSWVRQAPGKGLEWVSAISGSGGSTFYADSVKGRFTISRDNSKNTVYLQMNSLRAEDTAVYYCAKALVLRFLEWLGDYWGQGTLVTVSS VL: DIQMTQSPSTLSASVGDRVTITCRASQSISSWLAWFQQKPGKAPKLLIYKASSLESGVPSRFSGSGSGTEFTLTISSLQPDDFATYYCQQYKSYWTFGQGTKVEIKR
1.8e+06 RFU	4.11e+06 RFU	5 fold	78.5%	3.23e+06 RFU	H1H21227N-N297Q (antibody, human IgG1, V domains shown) VH: QVQLVQSGAEVKKPGASVKVSCKVSGYTLTELSIHWVRQVPGKGLEWMGGFDPEEGETIFAQEFRDRVTLTEDTSPDTAYMELSSLKSEDAAVYYCTTPRYCNNGICYDYWGQGTLVTVSS VL: DIQMTQSPSSLSASVGDRVTITCRASQSISNYLNWYQQKPGKAPKLLIYTASSLQSGVPSRFSGSGSGTDFTLTISSLQTEDFATYYCQQSYSNFPITFGQGTRLEIKR
		7 fold			H1H21227N (antibody, human IgG1, V domains shown) VH: QVQLVQSGAEVKKPGASVKVSCKVSGYTLTELSIHWVRQVPGKGLEWMGGFDPEEGETIFAQEFRDRVTLTEDTSPDTAYMELSSLKSEDAAVYYCTTPRYCNNGICYDYWGQGTLVTVSS VL: DIQMTQSPSSLSASVGDRVTITCRASQSISNYLNWYQQKPGKAPKLLIYTASSLQSGVPSRFSGSGSGTDFTLTISSLQTEDFATYYCQQSYSNFPITFGQGTRLEIKR
		42 fold			H1H21231N (antibody, human IgG1, V domains shown) VH: EVQLVESGGGLVQPGGSLRLSCAASGFTFSDHYMDWVRQAPGKGLEWVGRTRNKANSHTTEYTASVTGRFTISRDDSRNSLYLQMNSLKTEDTAVYYCVRAGIIGTLFDYWGQGTLVTVSS VL: DIQMTQFPSSLSASVGDRVTITCRASQSISSFLNWFQQKPGKAPKFLIYAASSLQSGVPSRFSGSGSGTDFTLTISSLQPEDFATYYCQQSYSSPPITFGQGTRLEIKR
		3 fold			H2aM25700N (antibody, mouse IgG2a, V domains shown) VH: QVQLVQSGSEVKKPGASVKVSCKVSGYTLTELSIHWVRQAPGKGLEWMGGFDPEDGETIYAQKFRGRVTMTEDISPDTAYMELSSLRSEDTAVYYCATPRYCNNGICYDYWGQGTLVTVSS VL: DIQMTQSPSSLSASIGDRVTITCRASQSISSYLNWYQQKPGKAPMLLIYAASSLQSGVPSRFSGSGSGTDFTLTISSLQTEDFATYYCQQSYSTPPITFGQGTRLEIKR
		45 fold			H1H21231N-N297Q (antibody, human IgG1, V domains shown) VH: EVQLVESGGGLVQPGGSLRLSCAASGFTFSDHYMDWVRQAPGKGLEWVGRTRNKANSHTTEYTASVTGRFTISRDDSRNSLYLQMNSLKTEDTAVYYCVRAGIIGTLFDYWGQGTLVTVSS VL: DIQMTQFPSSLSASVGDRVTITCRASQSISSFLNWFQQKPGKAPKFLIYAASSLQSGVPSRFSGSGSGTDFTLTISSLQPEDFATYYCQQSYSSPPITFGQGTRLEIKR
